One test addresses T1, H2-K^b (mouse, UniProt P01887 21-119; P01901 22-369, limits assumed).
T1 construct: whole, on cells; also called murine MHC class I
T1 sequence (MHC heavy, looked up): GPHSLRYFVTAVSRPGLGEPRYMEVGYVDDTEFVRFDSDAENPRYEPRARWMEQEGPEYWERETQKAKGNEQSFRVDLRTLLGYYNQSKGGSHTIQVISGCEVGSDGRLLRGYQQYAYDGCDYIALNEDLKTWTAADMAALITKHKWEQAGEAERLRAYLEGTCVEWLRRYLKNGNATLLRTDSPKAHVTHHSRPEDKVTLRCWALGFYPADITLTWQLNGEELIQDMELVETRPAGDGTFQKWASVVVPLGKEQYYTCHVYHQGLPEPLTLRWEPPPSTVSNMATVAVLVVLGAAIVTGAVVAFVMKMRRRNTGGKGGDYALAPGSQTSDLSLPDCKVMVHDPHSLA
T1 sequence (b2m, looked up): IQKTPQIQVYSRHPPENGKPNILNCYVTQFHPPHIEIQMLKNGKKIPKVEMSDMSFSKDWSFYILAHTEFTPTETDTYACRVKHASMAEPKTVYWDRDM
In words: H2-K^b upregulation on RMA-S cells, 100 µM peptide, 37° C. As for the experimental part:
To obtain the data presented in FIG. 3, survivin peptide epitopes were used in conventional MHC class I peptide binding assays. Mean fluorescence in FIG. 3 represents binding of SVN peptides to H2-K^b. Upregulation of H2-K^b molecules on the surface of murine RMA-S cells which are deficient in the expression of surface MHC class I molecules was used to determine actual survivin peptide binding in vitro. Data presented in FIG. 3 represent the binding of 100 μM peptide at 37° C.

Test [1] has as its target T2, HLA-A*0201 (human).
T2 construct: also called human MHC class I; MHC I
Description: competitive peptide binding assay, displacement of fluorescently labeled HPV18-27 from HLA-A*0201. From the text: To obtain the data summarized in FIGS. 4A and 4B, survivin peptide epitopes were used in MHC class I peptide competitive displacement assays. […] Positive control peptides (Flu & gp100) represent known immunogenic MHC class I ligands. Data represent mean fluorescence±S.E.M. of triplicate samples.

In test [2] the target is T2, HLA-A*0201. In words: survivin/MHC Class I-specific HLA-A*0201 pentamer binding.

Regarding TLGEFLKL [SVN97-104], the binding result with H2-K^b was “binds”. Regarding CFFCFKEL (also called SVN 57-64 wt) [SVN-57-64], the binding result with H2-K^b is reported as “binds”. On the same count and under the same terms, with MFFCFKEL [SVN-57-64/M57] the entry was “binds”. Turning to DLAQCFFCFKELEGW [wild type SVN53-67], the binding result in the test with HLA-A*0201 [1] is “binds”.

B1: SVN53-67/M57 (peptide)
peptide: DLAQMFFCFKELEGW
notes: also called Survivin M57; Survivin-53-67/57M
On to B1, for which, in the test with HLA-A*0201 [1], the “fold stronger binding than wild type SVN53-67” value is around 12 fold. Turning to QCFFCFKEL [wild type SVN56-64], the binding result with HLA-A*0201 [2] was “binds”. For the molecule QMFFCFKEL (also called core peptide SVN56-64/M57) [SVN56-64/M57], in the test with HLA-A*0201 [2], the “fold stronger binding than wild type SVN56-64” value was around 73 fold.

For the origin of these results see US20110268755A1 (HEALTH RESEARCH, published 2011).
